Test results reported in patent US7547676B2, “Antagonist peptides to the C5A chemotactic function of vitamin D binding protein” (The Research Foundation of State University of New York, priority 2004, dated 2009).

What was measured:
[1] = test system: differentiated HL-60 cells; assay: Chemotaxis assay, differentiated HL-60 cells responding to C5a, C5a plus DBP or ZAS; format: cell-based, Human; conditions: differentiated HL-60 cells; for enhancement of C5a-mediated chemotaxis (net cell movement): 100 pM C5a (FIG. 1: 25-200 pM) plus 50 nM of indicated DBP, 60 min at 37° C
Experimental: Cells (6×10^6/ml) were resuspended in chemotaxis buffer and treated either with chemotaxis buffer (control), 1 μM of peptide 1 (130-152), or 1 μM of peptide 2 (150-172) for 30 min at room temperature. The chemotactic response of differentiated HL-60 cells to 100 pM C5a alone, C5a plus 50 nM full-length natural DBP or 1% zymosan-activated serum (ZAS) was measured for 60 minutes at 37° C. Numbers represent net cell movement in 60 min, mean±SEM of 3 experiments.
(§1) Cells and cell culture: Human promyelocytic cell line HL-60 was obtained from ATCC (Rockville, Md.) and cultured in RPMI 1640 medium supplemented with 10% FBS. Differentiation of HL-60 cells was initiated with 250 μM Bt2cAMP for 48 hours.
Chemotaxis assay. Chemotaxis was performed as described previously (see Kew, R. R. et al., J. Leukoc. Biol. 58, 55-58 (1995)). In brief, 35 μl of C5a (0.01 to 1 nM) in the chemotaxis buffer (HBSS with 1% BSA, 10 mM HEPES) were placed in duplicate in the lower chamber of a 48-well chamber (Neuroprobe, Md.). The lower compartments were covered with a 5 μm pore cellulose nitrate filter and then 50 μl of the cell suspension (2.5×10^5/well) was pipetted into the upper compartments. The chemotactic chamber was incubated for 1 hour at 37° C. in a humidified incubator with 5% CO2. Following incubation, the filter was fixed, stained and mounted on a microscope slide. Cell movement was measured as the distance in microns that the leading front of the cells had migrated into the filter (see Zigmond, S. et al., J. Exp. Med. 137, 387 (1973)).

[2] = test system: differentiated HL-60 cells; assay: Ligand-induced calcium mobilization (Fluo-3 AM) in differentiated HL-60 cells; format: cell-based, Human; conditions: differentiated HL-60 cells incubated 30 min with 50 nM of indicated DBP, then C5a
Experimental: as §1
Ligand-induced calcium mobilization. Calcium mobilization studies were performed using the Fluo-3 AM probe as described previously (see Merritt, J. E. et al., Biochem. J. 269, 513-519 (1990)). Differentiated HL-60 cells (1×10^7 cells/ml) were resuspended in HBSS-1% BSA containing 2 μM Fluo-3 AM (Molecular Probes, Eugene, Oreg.) and incubated at 37° C. for 40 minutes. Cells incubated without the dye were used as a control to measure autofluorescence (Fmin). Following the dye uptake, cells were washed twice then suspended at 5×10^6 cells/ml in HBSS containing 1% BSA. Half of the cell suspension was treated with 50 nM DBP for 30 min at room temperature, the other half served as the untreated control. For each measurement, 400 μl of cell suspension (with or without DBP) was added to a cuvette and stimulated with various concentrations of purified C5a at room temperature (22-24° C.). Fluorescence was then measured immediately using a Perkin-Elmer LS-5 fluorometer at 505 nm excitation, 526 nm emission for Fluo-3 AM. Fmax was measured by treating labeled cells with 60 μM digitonin. Intracellular free calcium concentrations were calculated using the following formula: (Ca^2+)=Kd (F−Fmin)/(Fmax−F), where Kd=325 nM for Fluo-3 according to manufacturer (Molecular Probes).

U937-C5aR cells = assay: C5a-induced intracellular calcium mobilization in U937-C5aR cells; format: cell-based, human; conditions: FIG. 11A; cells pretreated 30 min at 22° C. with 50 nM DBP
Experimental: FIG. 11A and FIG. 11B show the effect of DBP on C5a-induced intracellular calcium mobilization in U937-C5aR cells. U937-C5aR cells (10^7 cells/ml) were resuspended in HBSS-1% BSA containing 2 μM Fluo-3 AM and incubated at 37° C. for 40 minutes. Cells incubated without the dye were used as a control to measure autofluorescence (Fmin). Following the dye uptake, cells were washed twice then suspended at 5×10^6 cells/ml in HBSS containing 1% BSA. For the pretreatment experiments, cells were incubated for 30 min at 22° C. with 50 nM DBP or 0.5 μM DBP peptide 1 (p1). For each measurement, 400 μl of cell suspension was added to a cuvette and stimulated with the indicated concentration of C5a (FIG. 11A) or 0.1 nM C5a (FIG. 11B). Fluorescence was then measured immediately using a Perkin-Elmer LS-5 fluorometer at 505 nm excitation, 526 nm emission for Fluo-3 AM. Fmax was measured by treating labeled cells with 60 μM digitonin. Intracellular free calcium concentrations were calculated using the following formula: (Ca^2+)=Kd (F−Fmin)/(Fmax−F), where Kd=325 nM for Fluo-3 according to manufacturer (Molecular Probes). Data are presented as mean±SEM (n=4-6) of the increase in intracellular calcium concentration.
U937-C5aR cells (10^7 cells/ml) were resuspended in HBSS-1% BSA containing 2 μM Fluo-3 AM and incubated at 37° C. for 40 minutes. Cells incubated without the dye were used as a control to measure autofluorescence (Fmin). Following the dye uptake, cells were washed twice then suspended at 5×10^6 cells/ml in HBSS containing 1% BSA. Cells were incubated for 30 min at 22° C. with either 50 nM DBP or 0.5 μM DBP peptide. For each measurement, 400 μl of cell suspension was added to a cuvette and stimulated with 0.1 nM purified C5a. Fluorescence was then measured immediately using a Perkin-Elmer LS-5 fluorometer at 505 nm excitation, 526 nm emission for Fluo-3 AM. Fmax was measured by treating labeled cells with 60 μM digitonin. Intracellular free calcium concentrations were calculated using the following formula: (Ca2+)=Kd (F−Fmin)/(Fmax−F), where Kd=325 nM for Fluo-3 according to manufacturer (Molecular Probes)

[3] = test system: differentiated HL-60 cells; assay: Ligand-induced calcium mobilization (Fluo-3 AM) in differentiated HL-60 cells; format: cell-based, Human; conditions: untreated cells, DBP and C5a added simultaneously

B1: DBP: Purified human DBP obtained from Biodesign International (protein)
chain: LERGRDYEKNKVCKEFSHLGKEDFTSLSLVLYSRKFPSGTFEQVSQLVKEVVSLTEACCAEGADPDCYDTRTSALSAKSCESNSPFPVHPGTAECCTKEGLERKLCMAALKHQPQEFPTYVEPTNDEICEAFRKDPKEYANQFMWEYSTNYGQAPLSLLVSYTKSYLSMVGSCCTSASPTVCFLKERLQLKHLSLLTTLSNRVCSQYAAYGEKKSRLSNLIKLAQKVPTADLEDVLPLAEDITNILSKCCESASEDCMAKELPEHTVKLCDNLSTKNSKFEDCCQEKTAMDVFVCTYFMPAAQLPELPDVELPTNKDVCDPGNTKVMDKYTFELSRRTHLPEVFLSKVLEPTLKSLGECCDVEDSTTCFNAKGPLLKKELSSFIDKGQELCADYSENTFTEYKKKLAERLKAKLPDATPTELAKLVNKHSDFASNCCSINSPPLYCDSEIDAELKNIL
enhancement of C5a-mediated chemotaxis (net cell movement) ([1]; listed as natural DBP): significantly enhanced | enhancement of C5a-mediated chemotaxis (net cell movement) ([1]; listed as purified natural DBP): significantly enhanced movement to C5a | response of cells treated with DBP alone ([1]; no C5a, chemotaxis and Ca2+ flux): no response | enhancement of intracellular Ca2+ flux in response to C5a [2]: significantly enhanced intracellular calcium influx | enhancement of intracellular Ca2+ flux in response to C5a ([2]; listed as natural DBP): significantly enhanced | effect on C5a-induced increase in intracellular calcium (U937-C5aR cells): significantly augments | calcium influx in response to C5a [3]: did not show augmented calcium influx
